In patent US20260183408A1, “POLYPEPTIDE AND USE THEREOF” (SHENZHEN CHENYANG BIOLOGICAL TECHNOLOGY CO., LTD, priority 2022, published 2026):
Ends that are not written are not given here.

T1: 5-HT2CR (Mus musculus, UniProt P34968)
T1 construct: The dissolved mouse hippocampal tissue extract (with 500 μg protein); from tissue; host or cells: mouse hippocampus
T1 sequence (P34968 33-459): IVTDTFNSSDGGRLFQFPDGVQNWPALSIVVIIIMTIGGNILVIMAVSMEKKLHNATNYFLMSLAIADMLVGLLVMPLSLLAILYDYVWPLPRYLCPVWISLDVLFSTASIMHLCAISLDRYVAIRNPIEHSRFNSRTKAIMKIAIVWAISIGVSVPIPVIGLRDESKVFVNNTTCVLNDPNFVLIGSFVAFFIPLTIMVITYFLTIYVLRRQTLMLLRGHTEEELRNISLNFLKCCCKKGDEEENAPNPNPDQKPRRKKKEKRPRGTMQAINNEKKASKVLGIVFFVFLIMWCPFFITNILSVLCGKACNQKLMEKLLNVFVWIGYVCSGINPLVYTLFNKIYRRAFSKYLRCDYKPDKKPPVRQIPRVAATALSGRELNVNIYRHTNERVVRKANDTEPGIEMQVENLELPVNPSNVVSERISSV

B1: IL3 region of D2R: GST fusion protein containing the third intracellular loop (IL3) region of D2R, K211-Q373 (protein)
chain: KIYIVLRRRRKRVNTKRSSRAFRAHLRAPLKGNCTHPEDMKLCTVIMKSNGSFPVNRRRVEAARRAQELEMEMLSSTSPPERTRYSPIPPSHHQLTLPDPSHHGLHSTPDSPAKPEKNGHAKDHPKIAKIFEIQTMPNGKTRTSLKTMSRRKLSQQKEKKATQ
modifications: left off: a dimerising Fc or GST; large carriers; small tags and cut ends
notes: GST fusion protein containing the third intracellular loop (IL3) region of D2R, K211-Q373

target: T1, 5-HT2CR; assay: GST pulldown assay for mouse hippocampal tissue with D2R fragments; type: binding; settings: GST fusion protein of the D2R region, mouse hippocampal tissue extract, Western blotting (FIG. 4)
From the text: In order to identify the binding site of the D2R/5-HT2CR complex, full-length D2R cDNA clone (Genbank Accession No. X51645) was first amplified to obtain the cDNA fragments of the CT region of D2R (D2R-CT, T428-C443) and the third intracellular loop (IL3) region of D2R (D2R-IL3, K211-Q373). These fragments were subcloned into the BamH1/EcoR1 or BamH1/Xho1 site of pGEX-4T-3 plasmids (YouBio no: VT1255). The initiation methionine residue and the termination codon were incorporated when appropriate. All constructs were resequenced to confirm that the splicing fusion was properly achieved. E. coli BL21 viable cells (KangTi Life Technology, no: KTSM104L) were used for expression, and purification was performed to obtain the GST fusion protein containing the IL3 region of D2R (GST-D2R-IL3) and the GST fusion protein containing the CT region of D2R (GST-D2R-CT) from the bacterial lysates.
The dissolved mouse hippocampal tissue extract (with 500 μg protein) was diluted with 1×PBS/1% Triton X-100 and subsequently incubated with 20 μl of protein-GST-resin saturated with only GST protein or 15 μg of the GST fusion protein described above overnight at 4° C. Beads were washed with 1×PBS/1% Triton X-100 for 1-8 times. The bound proteins were eluted with SDS-PAGE Protein Loading Buffer (YeSen, no: 20315ES05), separated with SDS-PAGE, and subjected to Western blotting with their respective antibodies. Results were as shown in panel A of FIG. 4.
According to the method in this Example, pulldown analysis was performed using the GST fusion protein containing the KVC region of D2R (GST-D2R-KVC), the GST fusion protein containing the ES region of D2R (GST-D2R-ES), and the GST fusion protein containing the PQ region of D2R (GST-D2R-PQ), and the Western blotting results were shown in panel B of FIG. 4. […]

**Q.** Which “pull down of 5-HT2CR” value does the source give for “KL polypeptide: K226-L240 region of D2R, SEQ ID NO: 1; tested in the pulldown as GST fusion protein GST-D2R-KL (KRSSRAFRAHLRAPL)” here?
**A.** The value was “could associate with 5-HT2CR”.

**Q.** “KVC region of D2R: GST fusion protein containing the KVC (K211-V270) region of D2R (KIYIVLRRRRKRVNTKRSSRAFRAHLRAPLKGNCTHPEDMKLCTVIMKSNGSFPVNRRRV; cysteine pairing not given here; also: GST fusion protein)” was tested. Which “pull down of 5-HT2CR” value did it give?
**A.** Its value is “could pull down the 5-HT2CR”.

**Q.** For B1, which “pull down of 5-HT2CR” value is on record?
**A.** Its value is “could pull down the 5-HT2CR”.
